These results are taken from patent US20190177709.

Experiment in all cases: cell_activity
Series [1] addresses ZFN 65459 (left) F1 Qm14 Qm5, F3 Qm5, F5 Qm5 (R to Q) (synthetic) (UniProt P14870). The conditions noted are these: with 65526, L:R 60:15 ug RNA, CD34+ cells.
Series [2] deals with ZFN 65526 (right) F1 Qm5, F2 Qm5, F4 Qm5, F5 Qm5 (R to Q); FokI R416S (synthetic) (UniProt P14870). The conditions noted are these: with 63014, L:R 60:15 ug RNA, CD34+ cells.
In series [3] the target is ZFN 65550 (right) F1 Qm5, F2 Qm5, F4 Qm5, F5 Qm5 (R to Q); FokI K525S (synthetic) (UniProt P14870). The conditions noted are these: with 63014, 60:60 ug RNA, CD34+ cells; Table 3 gives 79.96.
Series [4] deals with ZFN 65549 (right) F1 Qm5, F2 Qm5, F3 Qm5, F4 Qm5 (R to Q); FokI K525S (synthetic) (UniProt P14870). The note with it: with 63014, 60:60 ug RNA, CD34+ cells; Table 3 gives 79.82.

The sequence “AAAGCAACTGTTAGCTTGCACTAGACTA (double strand) [BCL11A +58 left half-site]” came in with an activity in series [1] of 76.9 % indels.
In the case of “CACAGGCTCCAGGAAGGGTTTGGCCTCT (double strand) [BCL11A +58 right half-site]”, the activity stood at 81.2 % indels in series [2], 79.8 % indels in series [3] and 80 % indels in series [4].
